Where no end group is shown, it is not given here. The star is where a group is joined. Boc = CC(C)(C)OC(=O)*
Molecular target: Wnt-5a receptors (on A2058 melanoma cells)
Assay: cell-based or functional assay

inhibition of the Wnt-5a-induced Ca2+ signal (fura-2, A2058 melanoma cells, 100 uM Box5, 0.1 ug/ml Wnt-5a): > 70%
B1: Box5 (Wnt-5a-derived N-butyloxycarbonyl hexapeptide Met-Asp-Gly-Cys-Glu-Leu) (peptide)
peptide: Boc-MDGCEL

Reference: patent US20120010151A1
